Test results taken from US20220281975A1 (Eli Lilly, published 2022).

Assays:
[1] = target: T1, human TREM2 expressed on BW5147.G.1.4 cells (human, UniProt Q9NZC2 19-230); test: cell-based or functional assay
T1 sequence (looked up): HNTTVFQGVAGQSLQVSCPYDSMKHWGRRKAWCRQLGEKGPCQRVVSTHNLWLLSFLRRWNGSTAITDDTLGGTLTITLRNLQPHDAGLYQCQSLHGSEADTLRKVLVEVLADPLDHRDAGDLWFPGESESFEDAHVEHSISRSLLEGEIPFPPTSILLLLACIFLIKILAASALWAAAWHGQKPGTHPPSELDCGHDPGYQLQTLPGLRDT

Human ECD TREM2-His [2] = target: T2, Human ECD TREM2-His (human, UniProt Q9NZC2 19-174); test: SPR (Biacore), 25 C; 25 C; human TREM2
T2 construct: also called Human TREM2; human TREM2 extracellular domain fused to a C-terminal His tag
T2 sequence: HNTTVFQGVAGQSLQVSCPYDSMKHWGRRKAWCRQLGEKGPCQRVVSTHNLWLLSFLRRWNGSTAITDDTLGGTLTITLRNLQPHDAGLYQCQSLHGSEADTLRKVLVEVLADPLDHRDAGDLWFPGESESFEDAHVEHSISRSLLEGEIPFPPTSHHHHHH

Mouse ECD TREM2-His [3] = target: T3, Mouse ECD TREM2-His (mouse, UniProt Q99NH8 19-171); test: SPR (Biacore), 25 C; 25 C; mouse TREM2
T3 construct: also called Mouse TREM2
T3 sequence: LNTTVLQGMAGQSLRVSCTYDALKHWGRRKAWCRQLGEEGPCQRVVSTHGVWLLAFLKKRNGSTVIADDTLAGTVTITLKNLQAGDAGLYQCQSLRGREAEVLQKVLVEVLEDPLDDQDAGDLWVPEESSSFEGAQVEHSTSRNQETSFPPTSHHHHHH

Cyno ECD TREM2-His [4] = target: T4, Cyno ECD TREM2-His (cynomolgus monkey); test: SPR (Biacore), 25 C; 25 C; cynomolgus TREM2
T4 construct: also called Cyno TREM2; cynomolgus monkey TREM2
T4 chain: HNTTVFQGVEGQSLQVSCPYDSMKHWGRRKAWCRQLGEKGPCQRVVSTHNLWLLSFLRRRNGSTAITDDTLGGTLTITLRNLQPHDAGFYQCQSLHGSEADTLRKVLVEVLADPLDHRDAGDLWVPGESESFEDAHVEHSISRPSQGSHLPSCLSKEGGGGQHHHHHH

Human TREM2 R47H [5] = target: T5, Human TREM2 R47H (human, UniProt Q9NZC2 19-174, limits assumed); test: SPR (Biacore), 25 C; 25 C; human TREM2 R47H
T5 construct: also called human R47H TREM mutant; R47H TREM
T5 sequence (looked up): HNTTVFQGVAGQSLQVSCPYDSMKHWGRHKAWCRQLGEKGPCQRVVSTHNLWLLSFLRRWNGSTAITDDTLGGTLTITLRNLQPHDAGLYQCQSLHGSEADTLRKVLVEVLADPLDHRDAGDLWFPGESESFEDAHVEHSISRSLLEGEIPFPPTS

Rat ECD TREM2-His = target: T6, Rat ECD TREM2-His (rat); test: SPR (Biacore), 37 C, antibody captured on protein A, TREM2-His ECD as analyte
T6 construct: also called Rat TREM2
T6 chain: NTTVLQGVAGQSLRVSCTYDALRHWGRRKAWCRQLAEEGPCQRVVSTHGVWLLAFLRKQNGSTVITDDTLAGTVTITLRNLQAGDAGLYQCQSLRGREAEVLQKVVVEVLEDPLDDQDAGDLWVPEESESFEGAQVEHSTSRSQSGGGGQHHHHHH
Description: (§1) The binding kinetics and affinity of TREM2 antibodies to human (SEQ ID NO: 11), mouse (SEQ ID NO: 12), rat (SEQ ID NO: 14), rabbit (SEQ ID NO: 13), or cynomolgus monkey (SEQ ID NO: 15) TREM2 extracellular domains (ECDs) fused to a C-terminal His tag are determined using surface plasmon resonance biosensor such as a BIAcore® T100, BIAcore® T200, or BIAcore® 8K (GE Healthcare, Piscataway, N .).
(§2) Samples are dissolved in 1xHBS-EP+running buffer (Teknova), and a protein A coupled CM5 Series S sensor chip (GE Healthcare) is utilized to capture antibody. Binding is evaluated using multiple analytical cycles. Each cycle is performed at 37° C. at a flow rate of 50 μl/min for antibody capture and 30 μl/min for ligand association and dissociation. […] Association (i.e., kₒₙ) and dissociation rates (i.e., koff) for each cycle are evaluated using standard double referencing and fit to “1:1 (Langmuir) binding” model in the Biacore 8K evaluation in parallel kinetics batch mode. The affinity (KD) is calculated from the binding kinetics according to the relationship KD=Koff/Kₒₙ. […]

Rabbit ECD TREM2-HIS = target: T7, Rabbit ECD TREM2-HIS (rabbit); test: as above
T7 construct: also called rabbit TREM2
T7 chain: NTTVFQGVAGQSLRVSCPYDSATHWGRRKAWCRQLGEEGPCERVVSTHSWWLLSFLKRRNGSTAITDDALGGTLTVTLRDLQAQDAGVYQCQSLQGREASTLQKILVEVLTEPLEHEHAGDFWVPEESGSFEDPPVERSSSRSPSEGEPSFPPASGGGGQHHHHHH
Description: as §1, §2

Human TREM2 R47H [6] = target: T5, Human TREM2 R47H; test: SPR (Biacore), 37 C, antibody captured on protein A, TREM2 R47H analyte, 1:1 model
Human ECD TREM2-His [7] = target: T2, Human ECD TREM2-His; test: SPR (Biacore), 37 C, antibody captured on protein A, TREM2-His ECD analyte, 1:1 model
Description: as §1
(§3) Samples are dissolved in 1xHBS-EP+running buffer (Teknova), and a protein A coupled CM5 Series S sensor chip (GE Healthcare) is utilized to capture antibody. Binding is evaluated using multiple analytical cycles. Each cycle is performed at 37° C. at a flow rate of 50 μl/min for antibody capture and 30 μl/min for ligand association and dissociation. Each cycle consists of the following: injection of 7 μl of 1 μg/ml antibody with the aim at a capture of 150-250 response units, injection of human, cynomolgus monkey, rabbit, rat, or mouse TREM2-His ECDs (starting at 20nM and using two-fold serial dilutions for each cycle) followed by 200 seconds for association, followed by 800 second dissociation phase, and regeneration using 10 mM glycine hydrochloride, pH 1.5 over a 30 second contact time. Association (i.e., kₒₙ) and dissociation rates (i.e., koff) for each cycle are evaluated using standard double referencing and fit to “1:1 (Langmuir) binding” model in the Biacore 8K evaluation in parallel kinetics batch mode. The affinity (KD) is calculated from the binding kinetics according to the relationship KD=Koff/Kₒₙ. Due to biphasic binding data for Reference Antibody A, a heterogenous ligand 2:1 binding modeling found in the Biacore 8K evaluation was used to calculate the KD. […] N=3 for Antibody 1 and Reference Antibody A, and n=1 for Reference Antibody B.

Mouse ECD TREM2-His [8] = target: T3, Mouse ECD TREM2-His; test: as above
Description: as §1, §3

Cyno ECD TREM2-His [9] = target: T4, Cyno ECD TREM2-His; test: as above
Description: as §1, §3

[10] = target: T1, human TREM2 expressed on BW5147.G.1.4 …; test: flow cytometry (MFI) on BW5147.G.1.4 cells expressing human TREM2 and DAP12, anti-human IgG Alexa Fluor 647 detection
Description: To investigate whether Antibody 1 binds to TREM2-expressing cells, a binding experiment is performed. BW5147.G.1.4 cell line is transduced to express human TREM2 and its adapter […] adapter protein 12 (DAP12). To assess binding, 500,000 cells are incubated in the presence of Antibody 1 with a 3-fold 12-point titration starting at 30 μg/ml for 30 minutes at 37° C. Antibody binding is detected using goat anti-human IgG Alexa Fluor 647 (Jackson Labs). Mean fluorescence intensity (MFI) is measured using an Accuri C6 Plus flow cytometer (BD Biosciences).

IC50 of inhibition of PS-mediated NFAT activation (luciferase reporter cells) [1]: 0.4 µg/mL
Kd (Human ECD TREM2-His [2]): 150 pM
Kd (Mouse ECD TREM2-His [3]): 3900 pM
Kd (Cyno ECD TREM2-His [4]): 43 pM
Kd (Human TREM2 R47H [5]): 290 pM
binding result (Rat ECD TREM2-His): no binding (tested: 200 nM TREM2)
binding result (Rabbit ECD TREM2-HIS): no binding
Kd (Human TREM2 R47H [6]): 75 pM
koff (Human TREM2 R47H [6]): 0.00037 s⁻¹
kon (Human TREM2 R47H [6]): 5e+06 M⁻¹ s⁻¹
Kd (Human ECD TREM2-His [7]): 170 pM
koff (Human ECD TREM2-His [7]): 0.00058 s⁻¹
kon (Human ECD TREM2-His [7]): 3.4e+06 M⁻¹ s⁻¹
Kd (Mouse ECD TREM2-His [8]): 1600 pM
koff (Mouse ECD TREM2-His [8]): 0.044 s⁻¹
kon (Mouse ECD TREM2-His [8]): 2.5e+07 M⁻¹ s⁻¹
Kd (Cyno ECD TREM2-His [9]): 75 pM
koff (Cyno ECD TREM2-His [9]): 0.00037 s⁻¹
kon (Cyno ECD TREM2-His [9]): 5e+06 M⁻¹ s⁻¹
EC50 [10]: 0.08 µg/mL
B1: TREM2 Antibody 1 (antibody, human IgG4 S228P, kappa, F234A L235A, V domains shown)
VH: EVQLVQSGAEVKKPGESLKISCKGSGFSFNTYWIGWVRQMPGKGLEWMGIIYPGDQDIRYSPSFQGQVTISADKSISTAYLQWSSLKASDTAMYYCARYGRYIYGYGGYHGMDVWGQGTTVTVSS
VL: DIQMTQSPSSLSASVGDRVTITCRASQAIRDDLGWYQQKPGKAPKLLIYAASSLQSGVPSRFSGSGSGTDFTLTISSLQPEDFATYYCLQNYNYPHTFGQGTKLEIKR
notes: Human antibody with a kappa light chain
